Assay results published in the nanobody polyreactivity screen of Harvey et al. (2022).

assay: yeast display, Sf9 membrane polyspecificity reagent, FACS + sequencing; frameworks hold sequencing errors
Summary of the method: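 In a synthetic yeast display library (Saccharomyces cerevisiae BJ5465), nanobody expression was induced with galactose for 36–48 hours. FACS gates were set low and high (top ~1%) using anti-HA fluorescence for expression and streptavidin fluorescence for binding of the Sf9 membrane reagent. Each polyreactivity label is drawn from the gate of origin.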

Sequence	polyreactivity (PSR sort gate)
QVQLVESGGGLVQAGGSLRLTCAASGRIFGYYAKGWYSQAPGKERELGATITFGGGSTCYADSVKGRFTISRDNAKKTVYLQMNSLKPEDTAVYYCAADSGYLGIYGDEYSWGQGTQVTVSS	low polyreactivity
QVQLVESGGGLVQAGGSLRLTCAASGRIFIYNTMGWYRQAPGTERELVATISSGGRTYYADSVKGRFTISRDNAKNTVYFQMNSLKPEDTAVYYCNARRRYYSVWRGWDNELDYWGQGTQVTVSS	high polyreactivity
QVQLVESGGGLVQAGGSLRLTCAASGRIFKQYAMGWYRQAPGKEMELVATISSGGDTNYADSVKGRFTISRDNAKNTVYLQMNSLKPEDTAVYFCAAGDIYYAEYEYWGKGTQVTVSS	low polyreactivity
QVQLVESGGGLVQAGGSLRLTCAASGRIFSFNAMVSYRKATGKERELVATIRTDGTTNYADSVKGRFTISRDNAKNTVYLQMNSMKPEDTAVYYCATDSGWSTYDFWGQGTQVTVSS	high polyreactivity
QVQLVESGGGLVQAGGSLRLTCAASGRIFSNDKGWYRQAPGKERELVAAITWSGGTTHYADSVKGRFTISRDNAKNTVYLQMNSLKPEDTAVYYCARAGGHAYSYWGQGTQVTVSS	low polyreactivity
QVQLVESGGGLVQAGGSLRLTCAASGRIFSRYAMGWYRQAPGKERELVASITRGGSTYADSVKGRFTISRDNAKNTVYLQMNSLKPEDTAVYYCNATYFTRYRQYDYWGQGTQVTVSS	low polyreactivity
QVQLVESGGGLVQAGGSLRLTCAASGRIFTRYSMGWYRKAPGKEREFVAAITNSGASTYYADSVKGRFTISRDNAKITVYLQMNSLKPEDTAVYYCAGDGPYWWDYDYWGQGTQETVSS	high polyreactivity
QVQLVESGGGLVQAGGSLRLTCAASGRIFVKNAMGWYRQAPGKERELVATICSGGNTNYADSVKGRFTISRDNAKNTVYLQMNSLKPEDTAVYYCAAVWDLGDYELPYDYWGLGTQVTVSS	low polyreactivity
QVQLVESGGGLVQAGGSLRLTCAASGRIIKLYAMGWYRQAPGKETEFVAAITWSGGRTYYADSVKGRFTISRDNAKNTVYLQMNSLTPEDTAVYSCAAYDTYDWYDYWGQGTQVTVSS	high polyreactivity
QVQLVESGGGLVQAGGSLRLTCAASGRILGYYAMGWYRPAPGKERELVAAITYSGGSTYYADSVKGRFSISRDNAKNTVYLQMNILKPEDTAVYYCAADKLLLGLYGSTWNDYWGQGTQVTVSS	low polyreactivity
QVQLVESGGGLVQAGGSLRLTCAASGRTFASNDMGWYRQAPGKEMELVADINNGARTYYADSVKGRFTISRDNAKNTVYLQMNSLKPEDTAVYYCAARRYGKQVRLYGYWGQGTQVTVSS	high polyreactivity
QVQLVESGGGLVQAGGSLRLTCAASGRTFGPYAMGWYRPAPGKERELVAAIRYIDDSTFYADSVKGRFTISRDNAKNTVYLQMNSLKPEDTAVYYCAAQRRVVGRHGLSLIRYDYWGQGTQVTVSS	low polyreactivity
QVQLVESGGGLVQAGGSLRLTCAASGRTFKSYTMGWYRQAPGKEREFVAAISSRGGNTYYADSVKGRFTISRDNAKNTVYLQMNSLKPEDTAVYYCAAESSYWSFPTYDYWGQGTQVTVSS	high polyreactivity
QVQLVESGGGLVQAGGSLRLTCAASGRTFPLNVMGWYRQAPGKERELVAAITVSAGSTYYADSVKGRFTISRDNAKNTVYLQMNSLKPEDTAVYYCAKATSSFYHYRYDYWGQGTQVTVSS	low polyreactivity
QVQLVESGGGLVQAGGSLRLTCAASGRTFQYYSMGWYRQAPGKERELVAAISQDGGSTYYADSVKGRFTISRDNAKNTVYLQMNSLKPEDTAVYYCAARVDEYAYYALDDYWGQGTQVTVSS	low polyreactivity
QVQLVESGGGLVQAGGSLRLTCAASGRTFSTYVMGWYRQAPGKEREFVAAISTGGGSTYYADSVKGRFTISRDNAKNTVYLQMNSLKPEDTAVYYCAAKRKIRGYGPYEFWGQGTQVTVSS	high polyreactivity
QVQLVESGGGLVQAGGSLRLTCAASGRTFVNYAMGWYRQAPGKERELVAAISTSGGSTYYADSVKGRFTISRDNAKNTVYLQMNSLKPEDTAVYYCNKVRYLPDNLRQVTFDYWGQGTQVTVSS	low polyreactivity
QVQLVESGGGLVQAGGSLRLTCAASGRTFWYYAMGWYRQAPGKERELVAAISRNGGSTYYEDSVKGRFTISRDNAKNTVYLQMNSLKPEDTAVYYCAATLLRDYDYWGQGTQVTVSS	high polyreactivity
QVQLVESGGGLVQAGGSLRLTCAASGRTFYYYAMGWYRQAPGKESELVAAINTRGVSTYYADSVKGRFTISRDNAKNTVYLQMNSLKPEDTAVYYCNKGFSYGRDYWGQGTQVTVSS	high polyreactivity
QVQLVESGGGLVQAGGSLRLTCAASGRTLGGYTMGWSRQAPGKERELVAAITTGGSTNYADSVKGRFTISRDNAKNTVYLQMNSLKPEDTAVYYCATELVFDKRYWYDYWGQGTQVTVSS	low polyreactivity
QVQLVESGGGLVQAGGSLRLTCAASGRTSNGYAMGWYRQAPGNERELVAAYADSVKGRFTISRDNAKNTVYLQMNSLKPEETAVYYCNADYDPVSRVGYVYWAYYYWGQGTQVTVSS	low polyreactivity

Sequence	polyreactivity (PSR sort gate)
QVQLVESGGGLVQAGGSLRLTCAASGSIFEVNAMGWYRQAPGKERELVAGISNADSTNYADSVKGRFTISRDNAKNTVYLQMNSLKPEDTAVYYCATDLDRDLPKDLLGPEYDYWGQGTQVTVSS	low polyreactivity
QVQLVESGGGLVQAGGSLRLTCAASGSIFGWYVMGWYIPAPGKERELVAAISSVGSTYYADSVKGRFTISRDNAKNTVYLQMKSLKREDTAVYYCAKLRYPYLFWDDSEYWGQGTQVTVSS	low polyreactivity
QVQLVESGGGLVQAGGSLRLTCAASGSIFLSYAMGWYRQPPGKDRELVAAISGGVNTYYADSVKGSFTISRDNAKNTVYLQMNSLKPEDTAVYYCYAVPHIYAEGTAYNYWGQGTQVTVSS	low polyreactivity
QVQLVESGGGLVQAGGSLRLTCAASGSIFPFYAKGWYRQATGKERELVAAISDSGGDTYYADSVKGRFTISRDNAKNTVYLQMNSLKPEDTAVYYCAADCFYNSFNYWGQGTQVTVSS	low polyreactivity
QVQLVESGGGLVQAGGSLRLTCAASGSIFTTNAKGWYRPAPGTERELVASITWSGGSTYADSVKGRFTISRDNAKYTVYLQMNILKPEDTAVYYGATDPFYPVPPEYEYWGQGTQVTVSS	low polyreactivity
QVQLVESGGGLVQAGGSLRLTCAASGSIFWDNAMGWYRQAPGKERALFAAITSSGGSTHYADSVKGRFTISRDNAKNTVYLQMYSLKPEDTAVYYCAARRYYGVYYAFLYWGQGTQVTVSS	high polyreactivity
QVQLVESGGGLVQAGGSLRLTCAASGSIFWGNAMGWYRQAPGKERELVATISWSAGSTYYADSVKGRFTISRDNAKNTVYLQMNSLKPEDTGVYYCATDFRHSTLYYYWGQRTQVTVSS	low polyreactivity
QVQLVESGGGLVQAGGSLRLTCAASGSIFWPNAMGWYRPAPGKERELVAAISWGTGSTYYADSVKGRFTISRDNAKNTVYLQMNSLKPEDTAVYYCAADGAYLDPYYDYWGQGTQVTVSS	low polyreactivity
QVQLVESGGGLVQAGGSLRLTCAASGSIFWRNTMGWYRQAPGKERELVAAIRNVGSTYYADSVKGRFTISRDNAKNTVYLQMNSLKPEDTAVYYCAVVYPARGSGNDSWGQGSQVTVSS	high polyreactivity
QVQLVESGGGLVQAGGSLRLTCAASGSIFWWYGVGWYRQAPGKERELVADITSGGGTYYADSVKGRFTISRDNAKNTVYLQMNSLKPEDTAVYYCAADDRAYRFDYYFDYWGQGTQVTVSS	low polyreactivity
QVQLVESGGGLVQAGGSLRLTCAASGSIFYYNAMGWYRQAPGKERELVAAISSDGSTYYADSVKGRFTISRDNAKNTVYLQMNSLKPEDTAVYYSAAATLTWSRWGSYYEYDYWGQGTQVTVSS	low polyreactivity
QVQLVESGGGLVQAGGSLRLTCAASGSNFQYYAMGWYRQAPGKERELVAAISSGDTTNYADSVKGRFTISRDNAKNTVYLQMNSLKPEDTAVYYCNAEGGWYDWDDYWGQGTQVTVSS	low polyreactivity
QVQLVESGGGLVQAGGSLRLTCAASGSNFWSYDMGWYRQAPGKERELVATITSGDSTYYADSVKGRFTISRDNAKNTVYLQMYSLKPEDTAVYYCAAGTYYRRPYWHRDYDYWGQGTQVTVSS	low polyreactivity
QVQLVESGGGLVQAGGSLRLTCAASGSTFGSYAMGRYRQAPGKERELVAVAISWSGGNTYYADSVKGRFTNSRDNAKNTFYLQMNSLKPEDTAVYYFAAYGTTGVYRGPGYDYWGQGTQVTVSS	low polyreactivity
QVQLVESGGGLVQAGGSLRLTCAASGSTFHLYAMGWYRQAPGKEREFVAAIRGRGGNTYADSVKGRFTISRDNAKNTVYLQMNSLKPEDTAVNYCAAPLLRDLRSPYSYNYWGQGTQVTVSS	low polyreactivity
QVQLVESGGGLVQAGGSLRLTCAASGSTFPSYAMGWYRQAPGKERELVAAINSGGGTNYADSVKGRFTISRDNAKNTVYLHMNSLKPEDTAVYYCAKSRYDYTKTEGGYWGQGSQVTVSS	low polyreactivity
QVQLVESGGGLVQAGGSLRLTCAASGSTFPYNAMGWYRPATGKERELVASITGGRKKYADSVKGRFTISRDNEKNTVYLQMNRLKREDTAVYYCAADYYSLWIRRDSNYWGQGTQVTVSS	low polyreactivity
QVQLVESGGGLVQAGGSLRLTCAASGSTFSGYAMGWYRQAPGKERELVATISGGGSTYYADSVKGRFTISRDNAKNTVYLQMNILKPEDTAVYYCNAQGYGIFTSSLDYWGQGTQVTVSS	low polyreactivity
QVQLVESGGGLVQAGGSLRLTCAASGSTFSVYDMGWYRKAPGKERELVAAIDVTGGSTYYADSVKGRFTISRDNAKNTVSLQMNSLKPEDTAVYYCNAGKCYSLYGMYYWGQGTQVTVSS	low polyreactivity
QVQLVESGGGLVQAGGSLRLTCAASGTFFMGWYRQAPGKERELVAGISISDGSTYYADSVKGRFTISRDNAKNTVYLQMNSLKPEDTAVYYCAADSHYLYDYWGQGTQVTVSS	low polyreactivity
